Measured values reported in paper PMC4939079 (Nature structural & molecular biology, 2016).

Molecular target: the molecule itself
Assay: affinity purification with mass spectrometry

B1: Bap1-GFP (natural protein)
chain: MNKGWLELESDPGLFTLLVEDFGVKGVQVEEIYDLQSKCQGPVYGFIFLFKWIEERRSRRKVSTLVDDTSVIDDDIVNNMFFAHQLIPNSCATHALLSVLLNCSNVDLGPTLSRMKDFTKGFSPESKGYAIGNAPELAKAHNSHARPEPRHLPEKQNGLSAVRTMEAFHFVSYVPITGRLFELDGLKVYPIDHGPWGEDEEWTDKARRVIMERIGLATAGEPYHDIRFNLMAVVPDRRIKYETRLHVLKVNRQTVLEALQQLIRVTQPELIQTHKSQESQLPEESKPASSKSPLGLEAGRTPVASECTQTDGAEEVAGSCPQTTTHSPPSKCKLVVKPPGSSLNGVPPNPAPIVQRLPAFLDNHNYAKSPMQEEEDLAAGVGRSRVPVRAPQQYSEDEDDYEDEDEDVQNTNPAIRYKRKGTGKPGSLSNSSDGQLSVLQPNTINVLTEKLQESQKDLSVPLSIKTSSGAGSPAVAVPTHSQPSPTPSNESTDTASEIGSAFNSPLRSPIRSANPTRPSSPVTSHISKVLFGEDDSLLRVDCIRYNRAVRDLGPVISTGLLHLAEDGVLSPLALTEGGKGSSPSTRSSQGSQGSSGLEEKEVVEVTESRDKPGLNRSSEPLSGEKYSPKELLALLKCVEAEIANYEACLKEEVEKRKKFKIDDQRRTHNYDEFICTFISMLAQEGMLANLVEQNISVRRRQGVSIGRLHKQRKPDRRKRSRPYKAKRQ
  stoichiometry N: ~2
